Each block holds one molecule with its values, some of them ahead of it. Ends that are not written are not given here.
Legend:
[1] = 10 °C; cited from earlier work
[2] = cited from earlier work
[3] = tested on: actin; settings: literature statement, no reference printed at this sentence; cited from earlier work
[4] = tested on: cofilin; settings: cited from earlier work
[5] = target: T1, αTM1b_(1-19)Zip (1bNTD), unlabeled synthetic peptide (rat | yeast); test: circular dichroism titration
T1 chain: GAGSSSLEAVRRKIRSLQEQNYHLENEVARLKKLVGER

Molecule: 9aCTD: residues 251-284 of rat striated α-tropomyosin encoded by exon 8 and exon 9a with GCG at the N-terminus (GCGKSIDDLEDELYAQKLKYKAISEELDHALNDMTSI; not fully specified; UniProt P04692 251-284, looked up, fragment)
- helical content of 9aCTD [1]: greater than 75%
- TM of unfolding of 9aCTD [2]: ~ 25 °C

Molecule: Cofilin: actin filament binding and severing protein
- affinity of cofilin for the actin filament [3]: high affinity

Molecule: Tropomyosin
- inhibition of cofilin binding and severing [4]: competitive inhibitor

- Kd [5]: < 500 nM
- stoichiometry N [5]: 0.94 ± 0.03 molar ratio
Molecule: GCGGSIDDLEEKVAHAKEENLSMHQMLHQTLLELNNM (also: disulfide cross-link between two chains through Cys2 (dimer)) [α-TM9d_(252-284) (9dCTD), disulfide cross-linked]

From paper PMC4410877 (Biochemistry, 2009)
